What was measured:
[1] = biological target: T1, 人C5蛋白 in 人血清补体 (Normal Human Serum Complement, Quidel, A112) (human, UniProt P01031 19-1676); experiment: cell-based or functional assay
[2] = biological target: T1, 人C5蛋白 in 人血清补体 (Normal Human Serum …); experiment: cell-based or functional assay; remark: listed apart in the source

T1 sequence (P01031 19-1676 limits assumed): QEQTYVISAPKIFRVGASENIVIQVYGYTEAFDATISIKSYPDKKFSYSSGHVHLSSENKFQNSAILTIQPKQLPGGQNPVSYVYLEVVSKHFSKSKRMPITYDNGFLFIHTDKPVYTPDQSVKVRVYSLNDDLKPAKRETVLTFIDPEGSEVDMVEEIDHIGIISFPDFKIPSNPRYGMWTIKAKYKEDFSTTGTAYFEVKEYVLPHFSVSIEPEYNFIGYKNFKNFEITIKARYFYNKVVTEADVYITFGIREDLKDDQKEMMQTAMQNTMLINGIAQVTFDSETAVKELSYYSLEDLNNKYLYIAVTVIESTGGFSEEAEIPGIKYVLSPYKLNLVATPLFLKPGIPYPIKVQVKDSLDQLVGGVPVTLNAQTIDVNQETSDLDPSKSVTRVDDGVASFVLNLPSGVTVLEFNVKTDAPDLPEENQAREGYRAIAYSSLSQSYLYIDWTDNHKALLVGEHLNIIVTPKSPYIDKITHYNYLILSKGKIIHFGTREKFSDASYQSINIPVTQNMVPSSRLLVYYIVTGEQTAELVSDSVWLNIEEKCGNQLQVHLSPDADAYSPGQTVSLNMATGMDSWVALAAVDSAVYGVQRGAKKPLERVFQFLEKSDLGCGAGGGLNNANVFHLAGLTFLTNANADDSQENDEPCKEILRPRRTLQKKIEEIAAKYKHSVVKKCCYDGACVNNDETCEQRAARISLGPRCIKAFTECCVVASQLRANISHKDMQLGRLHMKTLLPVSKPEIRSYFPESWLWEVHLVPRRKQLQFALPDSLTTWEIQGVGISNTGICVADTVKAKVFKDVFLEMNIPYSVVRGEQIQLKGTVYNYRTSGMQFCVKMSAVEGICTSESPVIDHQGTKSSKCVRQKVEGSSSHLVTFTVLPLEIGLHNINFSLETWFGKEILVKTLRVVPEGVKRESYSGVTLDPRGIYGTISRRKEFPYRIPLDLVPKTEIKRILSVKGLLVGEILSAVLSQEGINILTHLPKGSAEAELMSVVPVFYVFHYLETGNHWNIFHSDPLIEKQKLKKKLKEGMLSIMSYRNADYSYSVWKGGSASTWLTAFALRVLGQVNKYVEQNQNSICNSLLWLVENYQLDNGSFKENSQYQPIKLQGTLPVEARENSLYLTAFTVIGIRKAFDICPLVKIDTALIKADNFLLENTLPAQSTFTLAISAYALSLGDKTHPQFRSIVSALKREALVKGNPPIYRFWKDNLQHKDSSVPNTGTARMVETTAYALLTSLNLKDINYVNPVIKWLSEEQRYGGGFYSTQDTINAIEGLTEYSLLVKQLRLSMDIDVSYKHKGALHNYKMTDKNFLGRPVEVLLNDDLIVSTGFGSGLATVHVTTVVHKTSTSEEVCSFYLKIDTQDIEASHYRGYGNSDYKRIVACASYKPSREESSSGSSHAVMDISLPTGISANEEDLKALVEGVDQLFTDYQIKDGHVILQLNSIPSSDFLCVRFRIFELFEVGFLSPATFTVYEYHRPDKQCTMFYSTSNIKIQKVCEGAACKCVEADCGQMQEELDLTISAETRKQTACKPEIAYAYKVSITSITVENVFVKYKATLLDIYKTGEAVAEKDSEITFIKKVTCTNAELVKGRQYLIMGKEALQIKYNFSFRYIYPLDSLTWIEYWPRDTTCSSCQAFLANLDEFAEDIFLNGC

- IC50(ug/ml), 补体依赖性溶血实验 [1]: 8.73 µg/mL
- EC50(ug/ml), 补体依赖性细胞毒性(CDC)阻断分析 [2]: 2.63 µg/mL
B1: Ref1 (对照抗体依库珠单抗可变区，hIgG1/hIgG-Kappa) (antibody, V domains shown)
VH: QVQLVQSGAEVKKPGASVKVSCKASGYIFSNYWIQWVRQAPGQGLEWMGEILPGSGSTEYTENFKDRVTMTRDTSTSTVYMELSSLRSEDTAVYYCARYFFGSSPNWYFDVWGQGTLVTVSS
VL: DIQMTQSPSSLSASVGDRVTITCGASENIYGALNWYQQKPGKAPKLLIYGATNLADGVPSRFSGSGSGTDFTLTISSLQPEDFATYYCQNVLNTPLTFGQGTKVEIKR
